In the RNAGym collection of RNA variant scans (doi:10.7554/elife.80360):

B1: CPEB3 Ribozyme (parent)
chain: GGGGGCCACAGCAGAAGCGUUCACGUCGCGGCCCCUGUCAGAUUCUGGUGAAUCUGCGAAUUCUGCUGU

Variants of: B1
Test: self-cleavage, relative activity (ratio to wild type); higher = more cleavage; co-transcriptional

Row | Variant | self-cleavage
1 | G50A U61G | 0.876
2 | U49G A59U | 0.835
3 | U49G A59G | 0.96
4 | U49C U55G | 0.816
5 | G47U G48U | 1.01
6 | U49G U64G | 0.926
7 | U49G U64C | 0.932
8 | G48U U61G | 0.958
9 | G48C G68U | 0.985
10 | G48C G68C | 0.992
11 | U49C C54A | 0.782
12 | G50A G56C | 0.675
13 | G50A G56U | 0.905
14 | G47U U62A | 0.983
15 | G48A A60G | 0.916
16 | G47U G68U | 1.01
17 | G47U G68C | 1.01
18 | G47U G68A | 0.991
19 | G50A U53A | 0.903
20 | U49A A52U | 1.02
21 | U49A A52C | 1
22 | U49G U67C | 0.964
23 | U49A G50U | 0.986
24 | G48A G58U | 0.987

Row | Variant | self-cleavage
25 | G48A G58C | 0.98
26 | G50A G58C | 1
27 | U49C G56U | 0.948
28 | U49C G56A | 0.935
29 | U49A U55G | 0.907
30 | U49A U55C | 0.895
31 | G48A U69G | 1.07
32 | G47U G56U | 0.983
33 | U49C G50A | 0.981
34 | U49C C63U | 0.993
35 | G48U A60U | 0.561
36 | G50A G65C | 0.683
37 | U49A U62G | 0.919
38 | U49C U62A | 0.98
39 | U49G U69A | 1.01
40 | U49G U69C | 1.06
41 | U49C A51G | 1.03
42 | U49C A60G | 0.955
43 | G50A C66A | 0.848
44 | G50A C66G | 0.902
45 | G48C C63G | 0.829
46 | G48U C54A | 0.994
47 | G48U C54U | 1.02
48 | G47U U64C | 0.943

Row | Variant | self-cleavage
49 | G47U U64A | 0.904
50 | G50A C54U | 0.992
51 | G50A C54G | 0.848
52 | G48C U61A | 0.962
53 | U49A U69C | 1.06
54 | U49A U69A | 0.976
55 | U49A G65U | 0.821
56 | G47U U53A | 1.01
57 | G50C A52U | 0.884
58 | U49A C63U | 0.94
59 | G50C | 0.996
60 | G50A | 0.999
61 | G48C U64G | 0.974
62 | G48C U64A | 0.864
63 | U49A G68U | 0.982
64 | G48C C54A | 0.921
65 | G48C C54G | 0.919
66 | U49A C57U | 0.379
67 | G48U U53A | 1
68 | U49A A51G | 1.05
69 | U49A A51C | 0.633
70 | U49G G65A | 0.97
71 | U49A G56C | 0.765
72 | G50A C57U | 0.356

Row | Variant | self-cleavage
73 | G50A C57A | 0.448
74 | U49A G58A | 1.01
75 | U49G C54A | 0.907
76 | U49G C54G | 0.925
77 | G48U C57U | 0.388
78 | G48U C57G | 0.398
79 | G48A G68U | 1.01
80 | G48A G68A | 1.01
81 | U49G A52G | 0.94
82 | U49G U55A | 0.968
83 | G48A U49A | 0.984
84 | U49C U64G | 0.909
85 | U49C U64A | 0.89
86 | U49C C66A | 0.77
87 | G50A G68A | 1.03
88 | G50A U67C | 1.01
89 | G50A U67G | 1.02
90 | G50A C63U | 0.986
91 | G47U G50U | 1.04
92 | U49G C66A | 0.891
93 | U49G U61G | 0.991
94 | G48U C66G | 0.937
95 | G50A U55G | 0.858
96 | G50A U55C | 0.79

Row | Variant | self-cleavage
97 | G47U U61C | 0.937
98 | G48C U53A | 0.968
99 | G48U A59G | 0.993
100 | G48C U69G | 1.05
101 | G48C U69A | 1.01
102 | U49A U67G | 1.03
103 | U49A U67C | 0.99
104 | G50C C54A | 0.53
105 | G50A A59C | 0.806
106 | U49G | 0.996
107 | U49C | 0.988
108 | U49A | 1
109 | G48U G65A | 0.961
110 | G48C U55G | 0.864
111 | G48C U55C | 0.963
112 | G48C A59U | 0.861
113 | U49A U64A | 0.942
114 | G50A U69A | 0.982
115 | U49C G58C | 0.993
116 | G48A U53G | 0.987
117 | G48A U53C | 0.958
118 | G48A U53A | 1.03
119 | G47U U67G | 1.01
120 | G47U U67A | 0.99

Row | Variant | self-cleavage
121 | G50C A60G | 0.959
122 | G48U U55A | 1
123 | G48C G56U | 0.962
124 | G47U U49C | 0.991
125 | G47U U49A | 1.01
126 | U49G A51U | 0.95
127 | U49G A51G | 0.981
128 | G50A A51C | 1.02
129 | U49A U53C | 0.991
130 | U49G G58C | 1
131 | U49G G58U | 0.957
132 | G48C U62C | 0.946
133 | G48C U62A | 0.994
134 | G48A C57A | 0.329
135 | G48C C66U | 0.998
136 | G50C A51C | 0.876
137 | G50C A51G | 0.982
138 | U49G U53G | 0.585
139 | U49G U53C | 0.98
140 | U49G U53A | 0.918
141 | G48U G58C | 0.999
142 | G48A U55A | 0.99
143 | U49A C66U | 0.998
144 | G50A A52G | 1

Row | Variant | self-cleavage
145 | G48C A60G | 0.948
146 | G48A G56U | 0.972
147 | G47U G65U | 0.946
148 | G47U G65A | 0.953
149 | G50A U64G | 0.892
150 | G50A U64C | 0.874
151 | U49G G50U | 0.993
152 | U49G G50C | 0.975
153 | U49A U61C | 0.91
154 | G48C C57U | 0.32
155 | G48C G58U | 0.969
156 | G48C A51U | 0.976
157 | G48C A51C | 1.02
158 | U49G G68A | 1
159 | U49G G68C | 0.958
160 | G48A A51G | 1.03
161 | U49C U61A | 0.911
162 | U49C U61C | 0.816
163 | G48A U62A | 0.973
164 | G47U U55C | 0.979
165 | U49G A60C | 0.338
166 | G48U U62G | 0.927
167 | G48U U62A | 0.922
